39 sequences from the supplement of paper PMC7877785 can be followed below.

The series is described as follows: self-splicing fitness, log relative to wild type (ln ratio); higher = more splicing; Tetrahymena group I intron in knt gene, E. coli kanamycin selection, DiMSum; sequences stand for … in CUCUCU…GGAGGGAAAAGUUAUCAGGCAUGCACCUGGUAGCUAGUCUUUAAACCAAUAGAUUGCAUCGGUUUAAAAGGCAAGACCGUCAAAUUGCGGGAAAGGGGUCAACAGCCGUUCAGUACCAAGUCUCAGGGGAAACUUUGAGAUGGCCUUGCAAAGGGUAUGGUAAUAAGCUGACGGACAUGGUCCUAACCACGCAGCCAAGUCCUAAGUCAACAGAUCUUCUGUUGAUAUGGAUGCAGUUCACAGACUAAAUGUCGGUCGGGGAAGAUGUAUUCUUCUCAUAAGAUAUAGUCGGACCUCUCCUUAAUGGGAGCUAGCGGAUGAAGUGAUGCAACACUGGAGCCGCUGGGAACUAAUUUGUAUGCGAAAGUAUAUUGAUUAGUUUUGGAGUACUCGUGGUCG
Put shortly:
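Colonies from six replicate transformations of E. coli BL21(DE3) were pooled and amplicon-sequenced on an Illumina HiSeq 2500. The library placed an intron with all eight P1ex-region nucleotides randomised inside the knt kanamycin-resistance gene on pET-22b(+), and cells grew overnight at 37°C or 30°C on LB agar with or without 25 μg/mL kanamycin (plus 100 μg/mL carbenicillin, 50 μM IPTG, 0.2% rhamnose). Fitness is the DiMSum error-weighted combination of wild-type-normalised replicate fold changes, kanamycin versus none.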

± gives the uncertainty stated by the source.

Take UAUUAGCAAUAUUACGCUCU: the “self-splicing fitness (ln)” value runs as follows: (30 °C) -1.02 ± 0.17; (37 °C) -0.332 ± 0.32.

For UUGUAGCAAUAUUACGAAAC, for the setting “37 °C”, the “self-splicing fitness (ln)” value is -2.66 ± 0.48.

For GUCCAGCAAUAUUACGUUGG, the “self-splicing fitness (ln)” value (30 °C) was -3.27 ± 0.15 and the “self-splicing fitness (ln)” value (37 °C) is -2.13 ± 0.17.

In the case of CAGAAGCAAUAUUACGCUCG, the “self-splicing fitness (ln)” value (30 °C) is -1.31 ± 0.11 and the “self-splicing fitness (ln)” value (37 °C) is -0.994 ± 0.15.

Regarding ACCGAGCAAUAUUACGUAUC, the “self-splicing fitness (ln)” value (37 °C) was -2.59 ± 0.25.

As to AUUGAGCAAUAUUACGACGC, the “self-splicing fitness (ln)” value (30 °C) is -2.27 ± 0.22 and the “self-splicing fitness (ln)” value (37 °C) was -2.35 ± 0.28.

Take AGCAAGCAAUAUUACGGAAU: the “self-splicing fitness (ln)” value is -3.44 ± 0.15 (30 °C) and -0.957 ± 0.093 (37 °C).

Regarding UGUCAGCAAUAUUACGGAAA, the “self-splicing fitness (ln)” value was -1.11 ± 0.088 (30 °C) and -0.145 ± 0.086 (37 °C).

For the sequence UUGGAGCAAUAUUACGUCAU, the “self-splicing fitness (ln)” value is, setting by setting: (30 °C) -3.84 ± 0.47; (37 °C) -1.45 ± 0.34.

As for AUGAAGCAAUAUUACGGGAA, the “self-splicing fitness (ln)” value runs as follows: (30 °C) -1.83 ± 0.11; (37 °C) -0.953 ± 0.14.

UGAAAGCAAUAUUACGCGCU: the “self-splicing fitness (ln)” value by setting is: (30 °C) -0.84 ± 0.11; (37 °C) 0.297 ± 0.14.

As for GCUCAGCAAUAUUACGACAU, the “self-splicing fitness (ln)” value was -0.812 ± 0.012 (30 °C) and -0.159 ± 0.032 (37 °C).

In the case of AUGUAGCAAUAUUACGCGUU, the “self-splicing fitness (ln)” value (30 °C) was -3.57 ± 0.18 and the “self-splicing fitness (ln)” value (37 °C) is -1.99 ± 0.17.

For AAAUAGCAAUAUUACGAUCC, the “self-splicing fitness (ln)” value is -0.358 ± 0.14 (30 °C) and -0.695 ± 0.17 (37 °C).

Regarding CACAAGCAAUAUUACGACUU, the “self-splicing fitness (ln)” value reads like this: (30 °C) -3.49 ± 0.18; (37 °C) -2.47 ± 0.21.

Consider CGGAAGCAAUAUUACGUCGA, for which the “self-splicing fitness (ln)” value is -2.59 ± 0.19 (30 °C) and -1.67 ± 0.18 (37 °C).

Consider UAGGAGCAAUAUUACGUAGG, for which the “self-splicing fitness (ln)” value (30 °C) is -3.28 ± 0.2 and the “self-splicing fitness (ln)” value (37 °C) is -1.15 ± 0.18.

Turning to AAUAAGCAAUAUUACGAUGC, the “self-splicing fitness (ln)” value by setting is: (30 °C) -2.4 ± 0.13; (37 °C) -1.45 ± 0.15.

CAGCAGCAAUAUUACGCAAU: the “self-splicing fitness (ln)” value is -3.18 ± 0.24 (30 °C) and -1.29 ± 0.15 (37 °C).

For the sequence UGCCAGCAAUAUUACGCCUG, the “self-splicing fitness (ln)” value reads like this: (30 °C) -2.1 ± 0.16; (37 °C) -0.0397 ± 0.12.

On to GGUGAGCAAUAUUACGGUUC, for which the “self-splicing fitness (ln)” value is, setting by setting: (30 °C) -1.21 ± 0.23; (37 °C) -0.574 ± 0.4.

With UUUGAGCAAUAUUACGUCCA, for the setting “37 °C”, the “self-splicing fitness (ln)” value is -0.659 ± 0.37.

CCUGAGCAAUAUUACGGCGA: the “self-splicing fitness (ln)” value (30 °C) was -3.62 ± 0.46 and the “self-splicing fitness (ln)” value (37 °C) is -2.62 ± 0.38.

In the case of CGACAGCAAUAUUACGAAAG, the “self-splicing fitness (ln)” value by setting is: (30 °C) -1.22 ± 0.13; (37 °C) -0.409 ± 0.17.

For the sequence AUCUAGCAAUAUUACGUCGU, the “self-splicing fitness (ln)” value (30 °C) was -0.83 ± 0.1 and the “self-splicing fitness (ln)” value (37 °C) was -1.21 ± 0.11.

For the sequence AAACAGCAAUAUUACGCUAG, the “self-splicing fitness (ln)” value was -1.39 ± 0.095 (30 °C) and -1.12 ± 0.13 (37 °C).

Regarding UACCAGCAAUAUUACGAGCG, the “self-splicing fitness (ln)” value (30 °C) was -0.124 ± 0.06 and the “self-splicing fitness (ln)” value (37 °C) was 0.206 ± 0.075.

As to AGAUAGCAAUAUUACGCAUA, the “self-splicing fitness (ln)” value is -2.23 ± 0.16 (30 °C) and -0.55 ± 0.18 (37 °C).

For the sequence AAUUAGCAAUAUUACGUAAU, the “self-splicing fitness (ln)” value (30 °C) was -1.92 ± 0.12 and the “self-splicing fitness (ln)” value (37 °C) is -0.218 ± 0.15.

On to GCCCAGCAAUAUUACGUAAA, for which the “self-splicing fitness (ln)” value is, setting by setting: (30 °C) -0.596 ± 0.06; (37 °C) -0.718 ± 0.097.

For AUCCAGCAAUAUUACGAUGA, the “self-splicing fitness (ln)” value reads like this: (30 °C) -0.862 ± 0.086; (37 °C) -0.285 ± 0.094.

Regarding GCGGAGCAAUAUUACGGUCU, the “self-splicing fitness (ln)” value (30 °C) is -3.04 ± 0.44 and the “self-splicing fitness (ln)” value (37 °C) is -2.35 ± 0.36.

For CGUUAGCAAUAUUACGGGCU, the “self-splicing fitness (ln)” value (30 °C) was -1.6 ± 0.099 and the “self-splicing fitness (ln)” value (37 °C) was -1.46 ± 0.16.

As for UGUCAGCAAUAUUACGACAA, the “self-splicing fitness (ln)” value by setting is: (30 °C) -1.02 ± 0.097; (37 °C) -0.118 ± 0.1.

With CAAGAGCAAUAUUACGCAGG, the “self-splicing fitness (ln)” value runs as follows: (30 °C) -2.62 ± 0.13; (37 °C) -2 ± 0.17.

Regarding CGCAAGCAAUAUUACGAUAC, the “self-splicing fitness (ln)” value is, setting by setting: (30 °C) -2.51 ± 0.17; (37 °C) -2.58 ± 0.33.

For the sequence AUUGAGCAAUAUUACGUCGU, the “self-splicing fitness (ln)” value runs as follows: (30 °C) -1.59 ± 0.15; (37 °C) -1.69 ± 0.17.

On to GGACAGCAAUAUUACGUCCC, for which the “self-splicing fitness (ln)” value (30 °C) is -3.31 ± 0.4.

As for UAUUAGCAAUAUUACGUGUG, the “self-splicing fitness (ln)” value was -0.846 ± 0.067 (30 °C) and -0.549 ± 0.084 (37 °C).
